Assay results reported in article PMC4854210, “IL-27 Promotes Proliferation of Human Leukemic Cell Lines Through the MAPK/ERK Signaling Pathway and Suppresses Sensitivity to Chemotherapeutic Drugs” (Journal of Interferon & Cytokine Research, 2016).

Key:
[1] = biological target: T1, Recombinant human IL27Rα-Fc chimera (human, UniProt Q6UWB1 33-516); assay: SPR; IL-27Rα-Fc or gp130-Fc captured on mouse anti-human IgG-Fc antibodies amine-coupled to a CM5 chip; IL-27 injected at increasing concentrations (multicycle), 30 μL/min; BIAcore T100, 25°C, HBS-EP+; double referenced; global fit, 1:1 Langmuir model; KD = kd/ka; settings: both partners purified
T1 construct: IL-27 receptor subunit alpha (IL-27Rα, WSX-1, TCCR), human; Captured on the chip by anti-human IgG-Fc antibodies; also called IL-27Rα-Fc fusion protein; IL-27R-Fc fusion protein; source: bought: R & D Systems
T1 sequence (looked up): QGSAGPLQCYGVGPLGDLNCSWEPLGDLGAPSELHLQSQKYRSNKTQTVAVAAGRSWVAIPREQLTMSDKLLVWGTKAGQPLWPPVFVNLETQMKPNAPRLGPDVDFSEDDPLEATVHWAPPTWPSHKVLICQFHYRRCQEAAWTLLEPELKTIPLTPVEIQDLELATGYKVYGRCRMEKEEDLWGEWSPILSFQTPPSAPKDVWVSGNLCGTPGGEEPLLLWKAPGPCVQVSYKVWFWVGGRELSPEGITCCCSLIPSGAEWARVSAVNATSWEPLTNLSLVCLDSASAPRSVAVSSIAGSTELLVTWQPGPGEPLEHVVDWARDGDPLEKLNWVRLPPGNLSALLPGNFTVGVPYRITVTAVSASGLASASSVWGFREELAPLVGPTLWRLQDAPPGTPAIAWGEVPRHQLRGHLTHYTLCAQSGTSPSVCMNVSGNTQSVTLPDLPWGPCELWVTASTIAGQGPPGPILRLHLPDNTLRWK

[2] = biological target: T2, Recombinant human gp130-Fc chimera (human, UniProt P40189-1 23-619); assay: as above; settings: both partners purified
T2 construct: gp130 (interleukin-6 receptor subunit beta), human; Captured on the chip by anti-human IgG-Fc antibodies; also called gp130-Fc fusion protein; source: bought: R & D Systems
T2 sequence (looked up): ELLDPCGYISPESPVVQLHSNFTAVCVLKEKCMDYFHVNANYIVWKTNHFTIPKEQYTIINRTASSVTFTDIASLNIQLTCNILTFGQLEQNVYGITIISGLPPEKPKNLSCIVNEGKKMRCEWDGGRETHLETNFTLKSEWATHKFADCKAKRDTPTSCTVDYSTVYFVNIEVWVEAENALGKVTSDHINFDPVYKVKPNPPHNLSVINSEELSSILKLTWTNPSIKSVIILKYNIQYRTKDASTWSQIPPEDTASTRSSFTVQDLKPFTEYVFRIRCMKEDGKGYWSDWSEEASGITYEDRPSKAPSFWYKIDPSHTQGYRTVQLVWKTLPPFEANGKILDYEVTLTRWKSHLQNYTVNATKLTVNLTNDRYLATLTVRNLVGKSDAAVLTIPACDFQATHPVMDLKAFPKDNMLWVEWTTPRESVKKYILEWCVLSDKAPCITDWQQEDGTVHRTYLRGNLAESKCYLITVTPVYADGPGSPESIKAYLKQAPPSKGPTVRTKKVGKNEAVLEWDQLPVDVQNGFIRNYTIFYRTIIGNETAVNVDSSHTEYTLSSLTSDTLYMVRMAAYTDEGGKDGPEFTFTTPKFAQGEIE

B1: Recombinant human IL-27 (ligand)
chain 1: FPRPPGRPQLSLQELRREFTVSLHLARKLLSEVRGQAHRFAESHLPGVNLYLLPLGEQLPDVSLTFQAWRRLSDPERLCFISTTLQPFHALLGGLGTQGRWTNMERMQLWAMRLDLRDLQRHLRFQVLAAGFNLPEEEEEEEEEEEEERKGLLPGALGSALQGPAQVSWPQLLSTYRLLHSLELVLSRAVRELLLLSKAGHSVWPLGFPTLSPQP
chain 2: RKGPPAALTLPRVQCRASRYPIAVDCSWTLPPAPNSTSPVSFIATYRLGMAARGHSWPCLQQTPTSTSCTITDVQLFSMAPYVLNVTAVHPWGSSSSFVPFITEHIIKPDPPEGVRLSPLAERQLQVQWEPPGSWPFPEIFSLKYWIRYKRQGAARFHRVGPIEATSFILRAVRPRARYYVQVAAQDLTDYGELSDWSLPATATMSLGK
notes: IL-27 subunit p28 (cytokine subunit of the heterodimeric IL-27), human; Epstein-Barr virus-induced gene 3 (EBI3), the soluble cytokine receptor subunit of IL-27, human; also called interleukin-27; source: bought: R & D Systems
Kd [1]: 0.0457 nM | koff [1]: 0.00414 s⁻¹ | kon [1]: 9.08e+07 M⁻¹ s⁻¹ | Kd [2]: 2.74 nM | koff [2]: 456 s⁻¹
